This is an account of results in patent US20230043289A1 (AC IMMUNE, published 2023).

For assay [1], the target named is T1, Human Tau monomer (recombinant 2N4R isoform, amino acids 2-441) (human, UniProt P10636-8 2-441).
T1 construct: range 2-441; also called monomeric human Tau; human monomer Tau protein
The assay can be described thus: SPR 25C, hIgG captured, Tau monomer analyte.

The target in assay [2] is T1, Human Tau monomer (recombinant 2N4R …). Nature of the assay: SPR, hIgG captured, Tau monomer 3.1-100 nM. Here is the method:
To assess the impact of N²⁸ deamidation on the affinity for human Tau, it was desirable to obtain two samples with widely separated N²⁸ deamidation status. Hu37D3-H9.v5 hIgG4.S228P was incubated at 40° C. for two weeks at a concentration of 1 mg/ml in Phosphate Buffered Saline, pH 7.4. Deamidation of the N²⁸G²⁹ motif was measured using LC-MS/MS. […] The stressed and unstressed antibodies were analyzed for Tau binding by surface plasmon resonance (Biacore) using the GE Biacore human IgG capture kit and a Series S CM5 chip. The hIgG were diluted to 2 μg/ml in 10 mM HEPES pH7.4, 150 mM NaCl, 0.05% Tween 20 (running buffer, HBSP) and captured at a flow rate of 10 μl/min for 15 seconds (t0 sample) or 17 seconds (t2 sample). […] Between cycles the surface was regenerated using a 30 second injection of 3M Magnesium Chloride at 10 μl/min. A 1:1 binding model was fitted to the data using instrument defaults, including local fitting of the “RI” parameter.
A general note: Surface plasmon resonance follows binding to a sensor surface in real time, without labels.

Assay [3] has the same target. The assay can be described thus: SPR 37C, hIgG captured, Tau monomer 0.1-33.3 nM. The protocol: Affinity for human and cynomolgus monkey Tau was measured at 37° C. using a Biacore T200 instrument, the GE Biacore human IgG capture kit and a Series S CM5 Sensor Chip. Antibodies were diluted to 1 μg/ml in running buffer HBS-EP (10 mM HEPES pH7.4, 150 mM NaCl, 1 mM EDTA, 0.05% Tween 20) and captured at a flow rate of 10 μl/min for 15 seconds. Data was collected for the binding of human and cynomolgus Tau monomer, each of which was injected at 0, 0.1, 0.4, 1.2, 3.7, 11.1, and 33.3 nM, using a flow rate of 30 μl/min, a contact time of 300 s, and a dissociation time of 900 s. Between cycles, the surface was regenerated with 3M magnesium chloride. Data was fit to a 1:1 binding model using BIAEvaluation software.

The target in assay [4] is T2, Tau fragment 1-15 (human, UniProt P10636-8 1-15).
T2 construct: range 1-15
T2 peptide (looked up): MAEPRQEFEVMEDHA
The assay can be described thus: ELISA on Tau 15-mer peptides. A general note: In an ELISA, binding on a coated surface is turned into a signal by an enzyme label.

In assay [5] the target is T3, MAPT(10-24) (human, also: biotinylated (position not given here)).
T3 construct: also called Tau fragment 10-24
T3 peptide: VMEDHAGTYGLGDRK
Nature of the assay: ELISA on Tau 15-mer peptides.

The target in assay [6] is T4, Tau fragment 37-51 (human, UniProt P10636-8 37-51).
T4 construct: range 37-51
T4 peptide (looked up): GDTDAGLKESPLQTP
The assay can be described thus: ELISA on Tau 15-mer peptides.

Assay [7] addresses T5, Tau fragment 19-33 (human, UniProt P10636-8 19-33).
T5 construct: range 19-33
T5 peptide (looked up): GLGDRKDQGGYTMHQ
Nature of the assay: ELISA on Tau 15-mer peptides.

For assay [8], the target named is T6, Tau fragment 28-42 (human, UniProt P10636-8 28-42).
T6 construct: range 28-42
T6 peptide (looked up): GYTMHQDQEGDTDAG
The assay can be described thus: ELISA on Tau 15-mer peptides.

Where no end group is shown, it is not given here.

T1 sequence (P10636 other isoform, or with tags, fused parts or gaps limits assumed): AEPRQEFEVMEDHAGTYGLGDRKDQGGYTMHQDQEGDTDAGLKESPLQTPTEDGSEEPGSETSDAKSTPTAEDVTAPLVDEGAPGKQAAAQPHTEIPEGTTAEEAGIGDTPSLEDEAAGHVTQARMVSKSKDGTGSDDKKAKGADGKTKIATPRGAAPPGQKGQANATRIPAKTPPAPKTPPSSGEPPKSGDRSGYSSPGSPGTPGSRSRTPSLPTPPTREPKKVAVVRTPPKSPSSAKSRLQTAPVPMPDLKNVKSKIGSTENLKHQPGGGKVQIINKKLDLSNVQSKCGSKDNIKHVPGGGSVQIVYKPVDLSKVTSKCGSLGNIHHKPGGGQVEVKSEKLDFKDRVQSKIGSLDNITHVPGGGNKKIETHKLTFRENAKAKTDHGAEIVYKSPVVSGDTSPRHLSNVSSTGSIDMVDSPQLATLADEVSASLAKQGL

B1: hu37D3-H9.v5 hIgG4.S228P, stressed (t = 2 weeks) (antibody, V domains shown)
VH: EVQLVESGGGLVQPGGSLRLSCAASGLIFRSYGMSWVRQAPGKGLEWVATINSGGTYTYYPDSVKGRFTISRDNSKNTLYLQMNSLRAEDTAVYYCANSYSGAMDYWGQGTLVTVSS
VL: EDVLTQTPLSLPVTPGQPASISCRSSQSIVHSNGNTYFEWYLQKPGQSPQLLIYKVSNRFSGVPDRFSGSGSGTDFTLKISRVEAEDVGVYYCFQGSLVPWTFGQGTKVEIK
modifications: light chain N28 (Kabat) partly deamidated: 43.1% increase after 2 weeks at 40 C in PBS pH 7.4
notes: human IgG4 with S228P, kappa; thermally stressed sample, a mixed population
In the case of B1, the dissociation constant (Kd) in assay [1] came to 1.5 nM; in assay [2] it was 0.7 nM.

B2: hu37D3-H9.v93 (antibody, V domains shown)
VH: EVQLVESGGGLVQPGGSLRLSCAASGLIFRSYGMSWVRQAPGKGLEWVATINSGGTRTYYPDSVKGRFTISRDNSKNTLYLQMNSLRAEDTAVYYCANSYSGAMDYWGQGTLVTVSS
VL: EDLLTQSPSSLSASVGDRVTITCRSSQSIVHSNGNTYLEWYQQKPGKSPKLLIYKVSNRFSGVPSRFSGSGSGTDFTLTISSLQPEDFATYYCFQGTLVPWTFGQGTKVEIK
With B2, in assay [3], the Kd amounted to 0.1 nM, the koff is 0.00102 s⁻¹ and the kon was found to be 6.89e+06 M⁻¹ s⁻¹.

B3: hu37D3-H9.v83 (antibody, V domains shown)
VH: EVQLLESGGGLVQPGGSLRLSCAASGLIFRSYGMSWVRQAPGKGLEWVATINSGGTRTYYPDSVKGRFTISRDNSKNTLYLQMNSLRAEDTAVYYCANSYSGAMDYWGQGTLVTVSS
VL: DDLLTQSPLSLPVTLGQPASISCRSSQSIVHSNGNTYLEWYQQRPGQSPRLLIYKVSNRFSGVPDRFSGSGSGTDFTLKISRVEAEDVGVYYCFQGTLVPWTFGQGTKVEIK
Take B3: in assay [3], the Kd was found to be 0.1 nM, the off-rate (koff) worked out at 0.000818 s⁻¹ and the kon is 6.19e+06 M⁻¹ s⁻¹.

B4: hu37D3-H9.v76 (antibody, V domains shown)
VH: EVQLVESGGGLVQPGGSLRLSCAASGLIFRSYGMSWVRQAPGKGLEWVATINSGGTRTYYPDSVKGRFTISRDNSKNTLYLQMNSLRAEDTAVYYCANSYSGAMDYWGQGTLVTVSS
VL: DDLLTQTPLSLPVTPGQPASISCRSSQSIVHSNGNTYLEWYLQKPGQSPQLLIYKVSNRFSGVPDRFSGSGSGTDFTLKISRVEAEDVGVYYCFQGTLVPWTFGQGTKVEIK
B4: in assay [3], the Kd was 0.1 nM, the dissociation rate constant (koff) amounted to 0.000892 s⁻¹ and the kon was found to be 6.94e+06 M⁻¹ s⁻¹.

B5: 123E9-A1 (antibody, IgG2a, V domains shown)
VH: EVQLQQSGPELVKPGASVKMSCKASGYTFTDYYMKWVKQSHGKSLEWIGDIDPNNGGTSYNQKFKGKATLTVDKSSSTAYMQLNSLTSEDSAVYYCARSAGFGDSFSFWGLGTLVTVSA
VL: DVLMTQTPLSLPVSLGDQASISCRSSQSIVHSNGNTYLEWYLQKPGQSPKLLIYKVSNRFSGVPDRFSGSGSGTDFTLKISRVEAEDLGFYYCFQGSHVPPTFGGGTKLEIK
notes: Ex.2 hybridoma supernatant; Ex.3 recombinant mIgG2a/kappa
Consider B5, for which the binding result in assay [4], in assay [5] and in assay [6] was “no binding” throughout.

B6: 19H6-F7 (antibody, IgG2a, V domains shown)
VH: EVQLVESGGDLVKPGGSLKLSCAASGFTFSSYGMSWVRQTPDKRLEWVATISSGGTYTYYPDSVKGRFTISRDNAKNTLYLQMSSLKSEDTAMYYCAPSYDGAMDYWGQGTSVTVSS
VL: DVLMTQTPLSLPVSLGDQASISCRSSQSIVHSNGNTYLEWYLQKPGQSPKLLIYKVSNRFSGVPDRFSGSGSGTDFTLKISRVEAEDLGVYYCFQGSLVPWTFGGGTKLEIK
notes: as for B5
For B6, the binding result in assay [7], in assay [4], in assay [8] and in assay [6] was “no binding” each time.

B7: 3A4-H4 (antibody, IgG2a, V domains shown)
VH: EVQLVESGGDLVKPGGSLKLSCAASGFTFSSYGMSWVRQTPDKRLEWVATISSGGTYTYYPDSVKGRFTISRDNAKNTLYLQMSSLKSEDTAMYFCATSYDGAMDYWGQGTSVTVSS
VL: DVLMTQTPLSLPVSLGDQASISCRSSQNIVHSNGNTYLEWYLQKPGQSPKLLIYKVSNRFSGVPDRFSGSGSGTDFTLKISRVEAEDLGVYYCFQGTLVPWTFGGGTKLEIK
notes: as for B5
As to B7, the binding result in assay [7], in assay [4], in assay [8] and in assay [6] was “no binding” throughout.

B8: 54C1-H11 (antibody, IgG2a, V domains shown)
VH: EVQLVESGGDLVKPGGSLKVSCVASGFTFRSYGMSWVRQTPDKRLDWVATISSGGNYTYYPDSVKGRFTISRDNAKNTLYLQMSSLKSEDTAMYYCASSYSGAMDYWGQGTSVTVSS
VL: DTVMTQSPLSLPVSLGDQASISCRSSQSIVHSNGNTYLEWYLQKPGQSPKLLIYTVSNRFSGVPDRFSGSGSGTDFTLKISRVEAEDLGVYYCFQGSHVPWTFGGGTKLEIK
notes: as for B5
Consider B8, for which the binding result in assay [7], in assay [4], in assay [8] and in assay [6] was “no binding” each time.

B9: 89F4-A1 (antibody, IgG2a, V domains shown)
VH: EVQLVESGGGLVQPKGSLKLSCAASGFTFNTYAMNWVRQAPGKGLEWVARIRSKSNNYAAYFADSVKDRFTISRDDSQTMLYLQMNNLKSEDTAMYYCVSGGNYVPFAYWGQGTLVTVSA
VL: NIMMTQSPSSLAVSAGEKVTMSCKSSQSVFYSSEQRNYLAWYQQKPGQSPKLLISWASTRESGVPDRFTGSGSGTDFTLTISSVQGEDLAVYYCHQYLSSFTFGSGTKLEIK
notes: as for B5
For B9, the binding result in assay [7], in assay [4] and in assay [5] was “no binding” in each case.

B10: 94B2-C1 (antibody, IgG2a, V domains shown)
VH: EVQLQQSGPELVKPGASMKISCKASGYSLTGYTMNWVKQSHGKNLEWIGLISPYNGVTSYNQKFKGKATLTVDKSSNTAYMELLSLTFEDSAVYYCARQGAYWGQGTLVTVSA
VL: not shown
notes: as for B5
For B10, the binding result in assay [8] and in assay [6] was “no binding” in each case.

For orientation: Kd means the concentration at which binding is half-saturated. Usually koff stands for the first-order rate constant of dissociation. As a reminder, the kon is a measure of how fast the partners come together.
